Blank lines part the entries; values can stand above or below the binder they belong to. Where no end group is shown, it is not given here. [ ]: non-standard residue; d: D form. pS = N[C@@H](COP(=O)(O)O)C(=O)O
Experiments:
[1] = molecular target: T1, β-catenin peptide on HLA-A*02:01 (human); test: cytokine release
T1 peptide: YLD[pS]GIHSGA

[2] = molecular target: T2, desmuslin/synemin peptide on HLA-A*02:01 (human); test: cytokine release
T2 peptide: RTF[pS]PTYGL

[3] = molecular target: T3, insulin receptor substrate 2 (IRS-2) peptide on HLA-A*02:01 (human); test: cytokine release
T3 peptide: RVA[pS]PTSGV

[4] = molecular target: T1, β-catenin peptide on HLA-A*02:01; test: killing
[5] = molecular target: T3, insulin receptor substrate 2 (IRS-2) …; test: killing
[6] = molecular target: T4, CDC25b (M-phase inducer phosphatase 2) peptide on HLA-A*02:01 (human); test: killing
T4 peptide: GLLG[pS]PVRA

B1: βCATA (TCR, V domains shown)
Valpha: GQQVQQSPASLVLQEGENAELQCNFSSTATRLQWFYQHPGGRLVSLFYNPSGTKHTGRLTSTTVTNERRSSLHISSSQTTDSGTYFCAIPPGTGSKLSFGKGAKLTVSP
Vbeta: NTKITQSPRYLILGRANKSLECEQHLGHNAMYWYKQSAEKPPELMFLYNLKQLIRNETVPSRFIPECPDSSKLLLHISAVDPEDSAVYFCASSQGQKQYFGPGTRLTVL
binding result [1]: recognises

B4: the CDC25b TCR (TCR, V domains shown)
Valpha: GEQVEQRPPHLSVREGDSAVIICTYTDPNSYYFFWYKQEPGAGLQLLMKVFSSTEINEGQGFTVLLNKKDQQLSLNLTAAHPGDSAVYFCAVKPGGYKVVFGSGTRLLVSP
Vbeta: EAAVTQSPRNKVAVTGGKVTLSCNQTNNHNNMYWYRQDTGHGLRLIHYSYGAGSTEKGDIPDGYKASRPSQENFSLILELATPSQTSVYFCASGGDTQYFGPGTRLLVL
binding result [4]: no recognition | binding result [5]: no recognition

B5: IRS-2A (TCR, V domains shown)
Valpha: AQSVTQPDARVTVSEGASLQLRCKYSYSGTPYLFWYVQYPRQGLQLLLKYYSGDPVVQGVNGFEAEFIKSNSSFHLRKASVHWSDSAVYFCAVSEGADRLTFGKGTQLIIQP
Vbeta: EAGVTQSPRYAVLQEGQAVSFWCDPISGHDTLYWYQQPRDQGPQLLVYFRDEAVIDNSQLPSDRFSAVRPKGTNSTLKIQSAKQGDTATYLCASSLLDSSYEQYFGPGTRLTVL
binding result [6]: no recognition

Results, then the binder that gave them:

binding result [2]: recognises
B2: DESB (TCR, V domains shown)
Valpha: AQSVTQPDARVTVSEGASLQLRCKYSYSGTPYLFWYAQYPRQGLQLLLKYYSGDPVVQGVNGFEAEFSKSNSSFHLRKASVHWSDSAVYFCVLRYGGNNKLTFGQGTVLSVIP
Vbeta: EAAVTQSPRSKVAVTGGKVTLSCHQTNNHDYMYWYRQDTGHGLRLIHYSYVADSTEKGDIPDGYKASRPSQENFSLILELASLSQTAVYFCASRYRDTQYFGPGTRLLVL

binding result [3]: recognises
B3: IRS-2B (TCR, V domains shown)
Valpha: AQSVTQPDARVTVSEGASLQLRCKYSYSGTPYLFWYVQYPRQGLQLLLKYYSGDPVVQGVNGFEAEFIKSNSSFHLRKASVHWSDSAVYFCAVSAGSGGKLTLGAGTRLQVNL
Vbeta: EAAVTQSPRSKVAVTGGKVTLSCHQANNHDYMYWYRQDTGHGLRLIHYSYVADSTEKGDIPDGYKASRPSQENFSLILELASLSQTAVYFCASSDRDNYAEQFFGPGTRLTVL

binding result [2]: recognises
B6: DESA (TCR, V domains shown)
Valpha: AQSVTQPDARATVSEGASLRLRCKYSYSGTPYLFWYVQYPRQGLQLLLKYYSGDPVVQGVNGFEAEFSKSNSSFHLRKASVHWSDSAVYFCVLSYSNNRIFFGDGTQLVMKP
Vbeta: DSGVVQSPRHIIKEKGGRSVLTCIPISGHSNVVWYQQTLGKELKFLIQHYEKVERDKGFLPSRFSVQQFDDYHSEMNMSALELEDSAMYFCASSLGGGEVFFGKGTRLTVV

From patent US20170029484A1 (published 2017)
